In patent US20130272968A1 (Bayer, published 2013):
Where a chain is given by its changes, count along the chain named.

T1: extracellular domain of human PRLR (soluble, monomeric, expressed in HEK293 cells) (human, UniProt P16471 25-234)
T1 construct: also called ECD-PRLR; ECD of PRLR
T1 sequence: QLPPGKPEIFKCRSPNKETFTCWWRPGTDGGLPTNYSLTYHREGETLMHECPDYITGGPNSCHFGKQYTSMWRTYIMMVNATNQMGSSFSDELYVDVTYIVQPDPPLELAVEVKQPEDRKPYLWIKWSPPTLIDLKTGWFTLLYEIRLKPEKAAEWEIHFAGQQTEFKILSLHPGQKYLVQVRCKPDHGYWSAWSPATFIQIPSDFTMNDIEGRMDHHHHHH

T2: murine prolactin receptor on cells (HEK293 and Ba/F cells stably transfected with murine PRLR) (mouse, UniProt Q08501 20-608)
T2 sequence (looked up): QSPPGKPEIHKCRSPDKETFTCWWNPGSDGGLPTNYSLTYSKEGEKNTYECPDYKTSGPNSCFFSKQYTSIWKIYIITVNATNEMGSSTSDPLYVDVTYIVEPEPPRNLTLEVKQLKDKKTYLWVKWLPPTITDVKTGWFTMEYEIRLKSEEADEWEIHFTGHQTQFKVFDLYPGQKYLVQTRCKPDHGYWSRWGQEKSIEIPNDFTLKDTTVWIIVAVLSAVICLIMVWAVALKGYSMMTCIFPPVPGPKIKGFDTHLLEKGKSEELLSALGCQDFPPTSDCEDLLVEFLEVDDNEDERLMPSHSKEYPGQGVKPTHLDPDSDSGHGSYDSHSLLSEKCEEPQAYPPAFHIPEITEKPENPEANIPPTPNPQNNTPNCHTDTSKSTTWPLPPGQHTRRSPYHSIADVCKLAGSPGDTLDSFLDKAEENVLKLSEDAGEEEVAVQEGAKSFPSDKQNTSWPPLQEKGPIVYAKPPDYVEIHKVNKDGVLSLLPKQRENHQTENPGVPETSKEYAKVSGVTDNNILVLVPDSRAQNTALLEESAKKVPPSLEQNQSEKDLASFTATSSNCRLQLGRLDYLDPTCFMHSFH

T3: human prolactin receptor on cells (T47D cells; HEK293 and Ba/F cells stably transfected with human PRLR) (human, UniProt P16471 25-622)
T3 sequence (looked up): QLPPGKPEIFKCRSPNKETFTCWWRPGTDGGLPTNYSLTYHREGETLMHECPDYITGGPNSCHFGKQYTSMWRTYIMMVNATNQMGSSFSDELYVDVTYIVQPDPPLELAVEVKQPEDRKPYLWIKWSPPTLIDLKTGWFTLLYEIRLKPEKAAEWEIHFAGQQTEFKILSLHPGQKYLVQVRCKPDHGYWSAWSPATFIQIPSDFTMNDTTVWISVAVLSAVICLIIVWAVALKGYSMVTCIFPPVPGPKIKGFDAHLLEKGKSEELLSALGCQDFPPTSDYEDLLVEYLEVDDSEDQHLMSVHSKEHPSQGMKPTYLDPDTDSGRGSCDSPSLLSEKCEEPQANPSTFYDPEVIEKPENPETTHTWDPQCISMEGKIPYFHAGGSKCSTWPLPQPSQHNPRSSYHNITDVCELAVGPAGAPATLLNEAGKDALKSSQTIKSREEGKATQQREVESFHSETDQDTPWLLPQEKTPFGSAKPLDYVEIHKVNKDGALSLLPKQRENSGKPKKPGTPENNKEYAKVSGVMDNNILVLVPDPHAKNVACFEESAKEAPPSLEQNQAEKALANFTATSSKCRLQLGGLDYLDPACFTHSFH

B1: 006-H08-53-27-0 (Fab, V domains shown)
VH: EVQLLESGGGLVQPGGSLRLSCAASGFTFDDYGMSWVRQAPGKGLEMVAVISYDGSNKYYADSVKGRFTISRDNSQNTLYLQMNSLRAEDTAVYYCASPLESPVAFDIWGQGTLVTVSS
VL: QSVLTQPPSASGTPGQRVTISCSGSNSNIGSNPVNWYQQLPGTAPKLLIYDNNKRPSGVPDRFSGSKSGTSASLAISGLRSEDEADYYCQSYDTGLSGWVFGGGTKLTVL
notes: Tested as E. coli supernatant; also called maturated 006-H08 Fab variant; copies: 1 + 1
B2: 006-H08-35-17-4 (Fab, V domains shown)
VH: B1 VH with M47W
VL: B1 VL with L96S
notes: as for B1
B3: 006-H08-59-30-0 (Fab, V domains shown)
VH: B1 VH with M47W, Y53F
VL: B1 VL
notes: as for B1
B4: 006-H08-14-6-0 (Fab, V domains shown)
VH: B1 VH with M47W
VL: B1 VL with N32S
notes: as for B1
B5: 006-H08-68-35-2 (Fab, V domains shown)
VH: B1 VH with M47W
VL: B1 VL with I29V
notes: as for B1
B6: 006-H08-63-32-4 (Fab, V domains shown)
VH: B1 VH with M47W
VL: B1 VL with S25L
notes: as for B1
B7: 006-H08-65-33-2 (Fab, V domains shown)
VH: B1 VH with M47W
VL: B1 VL with S27D
notes: as for B1
B8: 006-H08-32-2 (Fab, V domains shown)
VH: B1 VH with Y53F
VL: B1 VL with S25L, I29V, T94E, S97G
notes: as for B1
B9: 006-H08-37-19-0 (Fab, V domains shown)
VH: B1 VH with M47W
VL: B1 VL with G98M
notes: as for B1
B10: 006-H08-33-16-0 (Fab, V domains shown)
VH: B1 VH with M47W
VL: B1 VL with T94E
notes: as for B1
B11: 006-H08-13-6-1 (Fab, V domains shown)
VH: B1 VH with M47W
VL: B1 VL with S31G
notes: as for B1
B12: 006-H08-35-17-1 (Fab, V domains shown)
VH: B1 VH with M47W
VL: B1 VL with L96A
notes: as for B1
B13: 006-H08-36-17-0 (Fab, V domains shown)
VH: B1 VH with M47W
VL: B1 VL with S97G
notes: as for B1
B14: 001-E06 (human IgG1) (antibody, V domains shown)
VH: QVELLESGGGLVQPGGSLRLSCAASGFTFSSYWMSWVRQAPGKGLEWVSSVSDTGTDTHYADSVKGRFTISRDNSKNTLYLQMNSLRAEDTAVYYCAKTPLAYSSGWYYFDYWGQGTLVTVSS
VL: DIVLTQPPSASGTPGQRVTISCSGSSSNIGSNTVNWYQQLPGTAPKLLIYRNYQRPSGVPDRFSGSKSGTSASLAISGLRSEDEADYYCQSYDSSLSGSVFGGGTKLTVLG
B15: HE06.642 (antibody, IgG1, V domains shown)
VH: EVQLVESGGGLVQPGGSLRLSCAVSGFTFSSYGMSWVRQAPGKGLEWVATVSSGGTYTYYPDSVKGRFTISRDNSKNTLYLQMNSLRAEDTAVYYCARHRGNYYATYYYAMDYWGQGTLVTVSS
VL: DIVLTQSPDSLAVSLGERATINCKASKSVSTSGYTYMHWYQQKPGQPPKLLIYLASNRESGVPDRFSGSGSGTDFTLTISPVQAEDVATYYCQHSGELPPSFGQGTKLEIKR
B16: 005-C04 (human IgG1) (antibody, V domains shown)
VH: EVQLLESGGGLVQPGGSLRLSCAASGFTFSSYWMHWVRQAPGKGLEWVSDISSASSYTNYADSVKGRFTISRDNSKNTLYLQMNSLRAEDTAVYYCARGLDARRMDYWGQGTLVTVSS
VL: QSVLTQPPSASGTPGQRVTISCTGSSSNIGAGYVVHWYQQLPGTAPKLLIYRNNQRPSGVPDRFSGSKSGTSASLAISGLRSEDEADYYCAAWDDSLNGWLFGGGTKLTVLG
B17: XHA06.642 (antibody, human IgG1, V domains shown)
VH: EVQLVESGGDLVKPGGSLKLSCAVSGFTFSSYGMSWVRQTPDKRLEWVATVSSGGTYTYYPDSVKGRFTISRDNAKNTLYLQMSSLKSEDSAMYYCARHRGNYYATYYYAMDYWGQGTSVTVSS
VL: DIVLTQSPASLAVSLGQGATISCRASKSVSTSGYTYMHWYQQKPGQPPKLLIYLASNLESGVPARFSGSGSGTDFTLNIHPVEEEDAATYYCQHSGELPPSFGGGTKLEIKR
B18: 006-H08 (human IgG1) (antibody, V domains shown)
VH: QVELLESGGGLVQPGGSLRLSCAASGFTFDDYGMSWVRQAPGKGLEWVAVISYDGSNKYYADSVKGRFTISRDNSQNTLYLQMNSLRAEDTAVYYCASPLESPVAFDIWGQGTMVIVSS
VL: B14 VL with S26N, T33P, R51D, Y53N, Q54K, S94T, S95G, S99W
B19: 006-H08-12-2 (Fab, V domains shown)
VH: B1 VH with Y53F
VL: B1 VL with S25L, I29V, N32S, T94E, L96S, S97G, G98M
notes: as for B1
B20: 006-H08-29-1 (Fab, V domains shown)
VH: B1 VH with Y53F
VL: B1 VL with S25L, S27D, I29V, S31G, N32S, L96A, S97G, G98M
notes: as for B1
B21: 006-H08-39-7 (Fab, V domains shown)
VH: B1 VH with Y53F
VL: B1 VL with S25L, I29V, S31G, N32S, T94E, L96S, S97G, G98M
notes: as for B1
B22: 006-H08-15-5 (Fab, V domains shown)
VH: B1 VH with Y53F
VL: B1 VL with S25L, S31G, N32S, T94E
notes: as for B1
B23: 006-H08-48-5 (Fab, V domains shown)
VH: B1 VH with Y53F
VL: B1 VL with S25L, S27D, I29V, L96S, G98M
notes: as for B1

Molecular target: T1, extracellular domain of human PRLR …
Assay: HTRF competition: Fab-containing E. coli supernatant with biotinylated ECD of human PRLR and streptavidin-europium, then Alexa Fluor 647-labelled IgG1 006-H08 as competitor; signal at 665 nm after 5 to 65 min; lower signal than control Fab 006-H08 = improved binding [Figure 21]
Protocol: Normalized E. coli-derived supernatants and 8 nM biotinylated extracellular domain of PRLR together with 1 nM Streptavidin-Europium were incubated in 96 well-microtiter plates for 30 min. Afterwards 200 mM KF and 50 nM Alexa Fluor 647-labeled IgG1 of 006-H08 were added. This mixture was incubated at room temperature for 5, 20, 35, 50, and 65 minutes, respectively. At the indicated time points, the absorption at 665 nm (and 620 nm) was measured using EnVision MultilabelReader (Perkin Elmer).

binding result | Binder
binds | B1
binds | B2
binds | B3
binds | B4
binds | B5
binds | B6
binds | B7
binds | B8
binds | B9
binds | B10
binds | B11
binds | B12
binds | B13

Molecular target: T2, murine prolactin receptor on cells …
Assay: cell-based or functional assay

IC50, inhibition of prolactin-activated proliferation of Ba/F cells stably expressing the murine prolactin receptor | IC50, prolactin-activated luciferase reporter gene activity, HEK293 cells stably transfected with mPRLR | Binder
43.7 µg/mL |  | B14
> 30 µg/mL |  | B15
0.74 µg/mL | 0.45 µg/mL | B16
 | > 50 µg/mL | B17

Molecular target: T3, human prolactin receptor on cells (T47D …)
Assay: cell-based or functional assay

IC50, prolactin-activated luciferase reporter gene activity, HEK293 cells stably transfected with hPRLR | Binder
0.83 µg/mL | B18
0.63 µg/mL | B15

Molecular target: T1, extracellular domain of human PRLR …
Assay: HTRF competition: Fab-containing E. coli supernatant with biotinylated ECD of human PRLR and streptavidin-europium, then Alexa Fluor 647-labelled IgG1 006-H08 as competitor; signal at 665 nm after 5 to 65 min; lower signal than control Fab 006-H08 = improved binding

binding result | Binder
binds | B19
binds | B20
binds | B21
binds | B22
binds | B23
